Data reported in patent US20190367903, “OLIGONUCLEOTIDE PROBES AND USES THEREOF” (CARIS SCIENCE, INC., published 2019).

Target: T1, EpCAM (UniProt P16422 P16422:24-265)
T1 sequence: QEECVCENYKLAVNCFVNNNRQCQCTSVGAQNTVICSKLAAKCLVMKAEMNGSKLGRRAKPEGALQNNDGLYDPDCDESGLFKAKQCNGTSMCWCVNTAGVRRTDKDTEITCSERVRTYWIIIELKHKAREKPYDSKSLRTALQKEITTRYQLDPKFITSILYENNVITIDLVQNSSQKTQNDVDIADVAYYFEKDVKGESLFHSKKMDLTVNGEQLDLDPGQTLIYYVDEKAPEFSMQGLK
Experiment: stated identified by library screening to recognize EpCAM, no data shown

B1: CAR003 (ssRNA)
RNA: AUCCAGAGUGACGCAGCAGUCUUUUCUGAUGGACACGUGGUGGUCUAGUAUCACUAAGCCACCGUGUCCA
B1: binds.
